These are literature values, as cited in article PMC4768738.

One data set has as its target p55 (Homo sapiens) (UniProt Q00013).
A further data set concerns the target ankyrin (Homo sapiens) (UniProt P16157).
UniProt P16157, sequence (P16157 whole entry): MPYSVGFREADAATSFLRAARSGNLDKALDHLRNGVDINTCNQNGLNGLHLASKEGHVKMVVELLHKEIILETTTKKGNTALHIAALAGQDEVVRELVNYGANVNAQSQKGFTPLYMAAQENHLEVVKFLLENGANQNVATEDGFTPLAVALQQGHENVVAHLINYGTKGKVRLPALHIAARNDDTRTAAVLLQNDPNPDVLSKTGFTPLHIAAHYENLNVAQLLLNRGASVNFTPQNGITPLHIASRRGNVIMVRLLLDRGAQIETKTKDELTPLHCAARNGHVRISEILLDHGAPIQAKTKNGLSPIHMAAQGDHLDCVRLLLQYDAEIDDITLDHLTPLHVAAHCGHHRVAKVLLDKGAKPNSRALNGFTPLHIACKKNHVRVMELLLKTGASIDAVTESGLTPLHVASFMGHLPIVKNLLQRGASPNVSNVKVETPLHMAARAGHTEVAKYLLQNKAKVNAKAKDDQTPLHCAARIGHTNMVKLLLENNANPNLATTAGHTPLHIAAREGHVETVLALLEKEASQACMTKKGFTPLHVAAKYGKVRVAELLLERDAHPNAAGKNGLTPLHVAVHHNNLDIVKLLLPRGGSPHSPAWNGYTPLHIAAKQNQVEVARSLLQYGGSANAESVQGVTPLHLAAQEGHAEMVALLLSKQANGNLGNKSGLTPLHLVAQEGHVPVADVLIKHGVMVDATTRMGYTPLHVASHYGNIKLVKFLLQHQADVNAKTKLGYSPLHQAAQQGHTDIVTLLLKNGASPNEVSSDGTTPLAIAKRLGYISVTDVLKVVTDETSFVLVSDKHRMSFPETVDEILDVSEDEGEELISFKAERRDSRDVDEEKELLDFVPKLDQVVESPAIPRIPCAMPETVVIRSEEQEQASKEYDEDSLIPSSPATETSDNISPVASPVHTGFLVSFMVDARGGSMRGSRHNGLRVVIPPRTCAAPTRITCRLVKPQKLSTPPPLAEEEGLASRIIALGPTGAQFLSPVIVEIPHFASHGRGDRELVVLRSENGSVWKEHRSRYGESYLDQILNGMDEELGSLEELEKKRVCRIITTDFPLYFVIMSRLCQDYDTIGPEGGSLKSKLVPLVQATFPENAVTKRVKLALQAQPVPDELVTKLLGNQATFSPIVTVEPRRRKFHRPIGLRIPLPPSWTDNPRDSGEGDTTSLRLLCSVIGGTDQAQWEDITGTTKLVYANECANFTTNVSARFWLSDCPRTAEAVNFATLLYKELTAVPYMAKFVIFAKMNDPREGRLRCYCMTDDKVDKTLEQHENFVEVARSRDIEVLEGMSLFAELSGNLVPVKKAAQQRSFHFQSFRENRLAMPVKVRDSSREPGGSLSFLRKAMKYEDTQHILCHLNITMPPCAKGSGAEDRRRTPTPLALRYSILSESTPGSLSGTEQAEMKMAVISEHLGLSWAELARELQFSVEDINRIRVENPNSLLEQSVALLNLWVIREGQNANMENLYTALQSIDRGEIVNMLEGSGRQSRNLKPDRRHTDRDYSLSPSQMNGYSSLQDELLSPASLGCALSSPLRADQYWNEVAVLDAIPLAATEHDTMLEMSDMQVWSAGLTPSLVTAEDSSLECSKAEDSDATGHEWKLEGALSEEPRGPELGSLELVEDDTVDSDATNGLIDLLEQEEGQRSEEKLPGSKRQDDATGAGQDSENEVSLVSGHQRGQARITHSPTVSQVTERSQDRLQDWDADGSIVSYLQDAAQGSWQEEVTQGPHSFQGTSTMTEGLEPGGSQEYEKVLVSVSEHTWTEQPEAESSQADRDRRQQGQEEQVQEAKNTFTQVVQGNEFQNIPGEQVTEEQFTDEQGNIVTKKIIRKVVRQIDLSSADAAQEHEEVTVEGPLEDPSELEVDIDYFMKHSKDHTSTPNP

UniProt Q00013, sequence (Q00013 2-466): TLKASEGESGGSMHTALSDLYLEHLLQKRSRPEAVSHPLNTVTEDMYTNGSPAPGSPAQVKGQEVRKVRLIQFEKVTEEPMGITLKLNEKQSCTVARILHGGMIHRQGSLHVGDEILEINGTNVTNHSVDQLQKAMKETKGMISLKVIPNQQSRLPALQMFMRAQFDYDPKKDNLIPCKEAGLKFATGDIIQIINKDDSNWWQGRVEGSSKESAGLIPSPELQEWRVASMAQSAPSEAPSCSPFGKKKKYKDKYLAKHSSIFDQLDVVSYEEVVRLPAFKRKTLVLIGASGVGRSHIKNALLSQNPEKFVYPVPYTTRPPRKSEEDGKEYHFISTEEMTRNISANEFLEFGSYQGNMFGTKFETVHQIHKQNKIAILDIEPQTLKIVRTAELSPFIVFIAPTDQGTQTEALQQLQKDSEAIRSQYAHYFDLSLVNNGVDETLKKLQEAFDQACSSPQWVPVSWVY

protein 4.1R (from UniProt P11171): the Kd with p55 (Homo sapiens) was 100 nM. With protein 4.2 (from UniProt P16452), in the data set with ankyrin (Homo sapiens), the dissociation constant (Kd) is 100 nM.

Broadly, the Kd is the free concentration of one partner at which half of the binding sites on the other are occupied at equilibrium, for simple one-to-one binding.
